The values below come from US20200354462A1.

The target of the test is human GnRH receptor expressed on the surface of OC-3-VGH cancer cells (human) (UniProt P30968). Nature of the test: cell-based or functional assay.
Chain of UniProt P30968 (P30968 whole entry): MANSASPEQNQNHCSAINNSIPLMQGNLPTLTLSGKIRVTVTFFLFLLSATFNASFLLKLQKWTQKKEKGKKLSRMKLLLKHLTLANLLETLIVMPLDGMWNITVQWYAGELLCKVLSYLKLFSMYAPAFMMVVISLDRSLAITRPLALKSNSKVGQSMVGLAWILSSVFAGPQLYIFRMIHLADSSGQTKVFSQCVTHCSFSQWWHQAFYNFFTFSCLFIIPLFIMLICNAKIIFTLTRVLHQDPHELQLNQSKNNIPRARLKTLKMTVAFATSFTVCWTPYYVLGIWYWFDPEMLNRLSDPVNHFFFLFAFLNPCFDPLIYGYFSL

Regarding antide (peptide), the GnRH gene expression in cancer cells was found to be 50%.
